Assay results from EP4635980A1 (Medigene Immunotherapies GmbH, dated 2025).

T1: ALA-5 mutagenic UNI-tag peptide (DKGEAPKDRFSA)
T1 construct: UNI-tag with alanine at position 5 (V5A); also called Uni-TAG-ALA 5; negative control
T1 peptide: DKGEAPKDRFSA

T2: ALA-10 mutagenic UNI-tag peptide (DKGEVPKDRASA)
T2 construct: UNI-tag with alanine at position 10 (F10A); also called Uni-Tag-ALA 10; positive control
T2 peptide: DKGEVPKDRASA


Experiments:
[1] = molecular target: T1, ALA-5 mutagenic UNI-tag peptide …; experiment: dot blot, peptide on PVDF membrane
[2] = molecular target: T2, ALA-10 mutagenic UNI-tag peptide …; experiment: dot blot, peptide on PVDF membrane

Row | Binder | binding result [1] | binding result [2]
1 | MDG827 monoclonal antibody (MDG827 hybridoma supernatant) (antibody, V domains shown, detected with anti-IgG2a secondary antibody; Used as hybridoma supernatant; also called MDG827 antibody; MDG827 Ab) VH: EVQLEESGGGLVQPGRSMKLSCAASGFTFSDYGMAWVLQGPTKGLEWVASISYDGNRPYYRDSVKGRFTISRDNAKSTLYLQMESLRSEDTATYYCVKDLFEIGDFDYWGQGVMVTVSS VL: DVLMTQTPVSLPVSLGGQVSISCRSSQSLVHSDGNTYLHWYLQKPGQSPQLLIYRVSNRFSGVPDRFTGSGSGTDFTLKISRVEPEDLGVYYCLQSTHFPLTFGSGTKLEIKR | no binding | binds
2 | recombinant monoclonal MDG827 antibody (produced in HEK293 cells) (antibody, V domains shown, used as culture supernatant; Detected with anti-rat IgG2a; also called recombinantly produced MDG827; anti-TRBC MDG827 antibody) VH: EVQLEESGGGLVQPGRSMKLSCAASGFTFSDYGMAWVLQGPTKGLEWVASISYDGNRPYYRDSVKGRFTISRDNAKSTLYLQMESLRSEDTATYYCVKDLFEIGDFDYWGQGVMVTVSS VL: DVLMTQTPVSLPVSLGGQVSISCRSSQSLVHSDGNTYLHWYLQKPGQSPQLLIYRVSNRFSGVPDRFTGSGSGTDFTLKISRVEPEDLGVYYCLQSTHFPLTFGSGTKLEIKR | no binding | 
